Where two headings read alike, the source gives them in different places. Where no end group is shown, it is not given here.
What was measured:
[1] = biological target: T1, Cyno TROP2 Full length (cynomolgus monkey, UniProt P09758 31-323 (human entry)); assay: cell-based or functional assay
T1 chain: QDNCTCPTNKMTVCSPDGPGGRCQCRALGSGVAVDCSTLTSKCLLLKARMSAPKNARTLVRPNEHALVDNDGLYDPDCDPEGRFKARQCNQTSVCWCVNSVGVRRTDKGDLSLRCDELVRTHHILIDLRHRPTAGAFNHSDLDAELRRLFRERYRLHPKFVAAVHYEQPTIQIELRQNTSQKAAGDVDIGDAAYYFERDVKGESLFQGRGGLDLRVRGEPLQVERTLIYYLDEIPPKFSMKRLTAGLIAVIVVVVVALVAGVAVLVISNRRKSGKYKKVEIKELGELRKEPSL

[2] = biological target: T2, Human TROP2 Full length (human, UniProt P09758 31-323); assay: cell-based or functional assay
T2 sequence: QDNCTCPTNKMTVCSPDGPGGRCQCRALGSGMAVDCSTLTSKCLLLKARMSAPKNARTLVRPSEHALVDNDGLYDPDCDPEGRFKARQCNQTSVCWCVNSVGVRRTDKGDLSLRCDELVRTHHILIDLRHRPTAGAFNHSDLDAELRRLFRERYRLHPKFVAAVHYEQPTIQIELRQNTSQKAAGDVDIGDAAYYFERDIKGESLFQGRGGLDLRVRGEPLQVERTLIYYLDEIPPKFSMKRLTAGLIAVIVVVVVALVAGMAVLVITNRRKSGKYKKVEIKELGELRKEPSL

[3] = biological target: T3, CD3 (human, UniProt P07766 23-126, limits assumed, biotinylated); assay: ELISA; biotinylated CD3 on neutravidin plates, PC titrated, HRP secondary
T3 construct: also called biotinylated CD3; CD3-biotin
T3 sequence (P07766 23-126 limits assumed): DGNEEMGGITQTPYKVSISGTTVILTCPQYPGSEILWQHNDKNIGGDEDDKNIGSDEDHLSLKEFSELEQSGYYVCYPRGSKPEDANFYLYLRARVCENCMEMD
Experimental: (§1) TROP2 TCEs and masked polypeptide complexes (PCs) were evaluated for their ability to bind TROP2 and CD3 by ELISA. […] The TCE or PC constructs diluted in buffer were then added to the antigen coated plates. Binding was measured using a standard horse radish peroxidase secondary antibody. The concentration of TCE or PC required to achieve 50% maximal signal (EC₅₀) was calculated.

[4] = biological target: T4, Human TROP2 ECD (31-274 AA) (human, UniProt P09758 31-274, biotinylated); assay: ELISA; biotinylated TROP2 on neutravidin plates, PC titrated, HRP secondary
T4 construct: also called biotinylated TROP2; TROP2-biotin
T4 sequence: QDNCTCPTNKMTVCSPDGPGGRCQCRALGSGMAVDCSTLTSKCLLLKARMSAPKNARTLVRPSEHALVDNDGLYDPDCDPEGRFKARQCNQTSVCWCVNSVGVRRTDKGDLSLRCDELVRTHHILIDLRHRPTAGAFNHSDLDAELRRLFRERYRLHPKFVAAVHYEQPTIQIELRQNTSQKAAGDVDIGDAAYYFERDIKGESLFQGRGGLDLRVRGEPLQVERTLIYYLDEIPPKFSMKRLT
Experimental: as §1

[5] = biological target: T5, TBD-11 (HC R98A); assay: competition ELISA, peptide vs Fab binding to captured biotin-TROP2
T5 construct: Fab; also called HC R98A mutant
T5 sequence (VH, as listed by the source, chain 1 of 2, one chain of several): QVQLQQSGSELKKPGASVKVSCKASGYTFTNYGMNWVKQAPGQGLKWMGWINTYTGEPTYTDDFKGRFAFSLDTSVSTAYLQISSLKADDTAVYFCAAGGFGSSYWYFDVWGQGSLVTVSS
Experimental: (§2) ELISA-based competitive inhibition studies were used to test the ability of each peptide to inhibit the TBDs from binding to TROP2. […] Inhibitory peptides were titrated in a dilution series and pre-incubated with a constant concentration of antibody. Inhibitory peptide and antibody mixtures were then incubated on the antigen captured plates. A horseradish peroxidase conjugate secondary antibody was then used to detect the antibody binding to the plate-bound antigen. The ELISA signal was plotted versus log-scale peptide concentration. A dose dependent decrease of signal was indicative of peptides that compete for antibody binding to the cognate antigen. Graphpad Prism software was used to calculate the inhibitory concentrations of peptide required to achieve 50% maximal signal (IC₅₀s).

[6] = biological target: T6, TBD-21 (HC F108A); assay: as above
T6 construct: Fab; also called HC F108A mutant
Experimental: as §2

[7] = biological target: T7, TBD-22 (HC D109A); assay: as above
T7 construct: Fab; also called HC D109A mutant
T7 sequence (VH, as listed by the source, chain 1 of 2, one chain of several): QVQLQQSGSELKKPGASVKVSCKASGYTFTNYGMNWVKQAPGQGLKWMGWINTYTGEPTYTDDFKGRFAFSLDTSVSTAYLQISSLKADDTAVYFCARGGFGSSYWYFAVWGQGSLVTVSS
Experimental: as §2

[8] = biological target: T8, TBD-17 (HC S104A); assay: as above
T8 construct: Fab; also called HC S104A mutant
T8 sequence (VH, as listed by the source, chain 1 of 2, one chain of several): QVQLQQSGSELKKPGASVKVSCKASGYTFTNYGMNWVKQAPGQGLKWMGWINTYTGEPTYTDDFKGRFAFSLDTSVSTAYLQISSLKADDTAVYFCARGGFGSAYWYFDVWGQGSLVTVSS
Experimental: as §2

[9] = biological target: T5, TBD-11 (HC R98A); assay: as above; remark: listed apart in the source
Experimental: as §2

[10] = biological target: T6, TBD-21 (HC F108A); assay: as above; remark: listed apart in the source
Experimental: as §2

[11] = biological target: T7, TBD-22 (HC D109A); assay: as above; remark: listed apart in the source
Experimental: as §2

[12] = biological target: T8, TBD-17 (HC S104A); assay: as above; remark: listed apart in the source
Experimental: as §2

B1: PC-34 (bispecific antibody)
light: GGVDFCALYHWPICYQGGGGSGGLSGRSDAGSPLGLAGSGGSDIQLTQSPSSLSASVGDRVSITCKASQDVSIAVAWYQQKPGKAPKLLIYSASYRYTGVPDRFSGSGSGTDFTLTISSLQPEDFAVYYCQQHYITPLTFGAGTKVEIKRTVAAPSVFIFPPSDEQLKSGTASVVCLLNNFYPREAKVQWKVDNALQSGNSQESVTEQDSKDSTYSLSSTLTLSKADYEKHKVYACEVTHQGLSSPVTKSFNRGEC
heavy: not shown
notes: Masked polypeptide complex: anti-TROP2 F108A, anti-CD3 H101A; CD3 mask …
CyTROP2 HEK293 EC50 (pM) [1]: 16500 pM | H292 Cytotoxicity EC50 (pM) [2]: > 100000 pM | EC50 [3]: 283 nM | EC50 [4]: 828 nM

B2: PC-42 (bispecific antibody)
light: GGVDFCALYHWPICYQGGGGSGGLSGRSDAGSPLGLAGSGGSDIQLTQSPSSLSASVGDRVSITCKASQDVSIAVAWYQQKPGKAPKLLIYSASYRYTGVPDRFSGSGSGTDFTLTISSLQPEDFAVYYCQQHYITPLTFGAGTKVEIKRTVAAPSVFIFPPSDEQLKSGTASVVCLLNNFYPREAKVQWKVDNALQSGNSQESVTEQDSKDSTYSLSSTLTLSKADYEKHKVYACEVTHQGLSSPVTKSFNRGEC
heavy: EVQLVESGGGLVQPGGSLRLSCAASGSTFYTAVMGWVRQAPGKGLEWVAAIRWTALTTSYADSVKGRFTISRDGAKTTLYLQMNSLRPEDTAVYYCAARGTLGLFTTADSYDYWGQGTLVTVSSGGGGSGGGSGGASQCLGPEWEVCPYGGGGSGGGLSGRSDAGSPLGLAGSGGGSEVQLVESGGGLVQPGGSLKLSCAASGFTFNKYAMNWVRQASGKGLEWVGRIRSKYNNYATYYADSVKDRFTISRDDSKNTAYLQMNSLKTEDTAVYYCVRHGNFGNSYISYWAYWGQGTLVTVSSGGGGSGGGGSGGGGSQTVVTQEPSFSVSPGGTVTLTCRSSTGAVTSGNYANWVQQTPGQAPRGLIGGTKFLAPGVPDRFSGSILGNKAALTITGAQADDESDYYCVLWYSNRWVFGGGTKLTVLGGGGSQVQLQQSGSELKKPGASVKVSCKASGYTFTNYGMNWVKQAPGQGLKWMGWINTYTGEPTYTDDFKGRFAFSLDTSVSTAYLQISSLKADDTAVYFCARGGFGSSYWYADVWGQGSLVTVSSASTKGPSVFPLAPSSKSTSGGTAALGCLVKDYFPEPVTVSWNSGALTSGVHTFPAVLQSSGLYSLSSVVTVPSSSLGTQTYICNVNHKPSNTKVDKKVEPKSC
notes: Masked polypeptide complex: anti-TROP2 F108A, anti-CD3 with P41S, A49G, N87S ; E227D
H292 Cytotoxicity EC50 (pM) [2]: 12200 pM | EC50 [3]: 60.2 nM | EC50 [4]: 630 nM

B3: PC-37 (bispecific antibody)
light: GGVDFCALYHWPICYQGGGGSGGLSGRSDAGSPLGLAGSGGSDIQLTQSPSSLSASVGDRVSITCKASQDVSIAVAWYQQKPGKAPKLLIYSASYRYTGVPDRFSGSGSGTDFTLTISSLQPEDFAVYYCQQHYITPLTFGAGTKVEIKRTVAAPSVFIFPPSDEQLKSGTASVVCLLNNFYPREAKVQWKVDNALQSGNSQESVTEQDSKDSTYSLSSTLTLSKADYEKHKVYACEVTHQGLSSPVTKSFNRGEC
heavy: not shown
notes: Masked polypeptide complex: anti-TROP2 F108A, anti-CD3 F240A; CD3 mask …
CyTROP2 HEK293 EC50 (pM) [1]: > 100000 pM | H292 Cytotoxicity EC50 (pM) [2]: > 100000 pM | HCT116 Cytotoxicity EC50 (pM) [2]: > 100000 pM | EC50 [3]: 1300 nM | EC50 [4]: 1510 nM

B4: PC-44 (bispecific antibody)
light: GGVDFCALYHWPICYQGGGGSGGLSGRSDAGSPLGLAGSGGSDIQLTQSPSSLSASVGDRVSITCKASQDVSIAVAWYQQKPGKAPKLLIYSASYRYTGVPDRFSGSGSGTDFTLTISSLQPEDFAVYYCQQHYITPLTFGAGTKVEIKRTVAAPSVFIFPPSDEQLKSGTASVVCLLNNFYPREAKVQWKVDNALQSGNSQESVTEQDSKDSTYSLSSTLTLSKADYEKHKVYACEVTHQGLSSPVTKSFNRGEC
heavy: not shown
notes: Masked polypeptide complex: anti-TROP2 F108A, anti-CD3 N30Q, I109V, G172A, V231A; CD3 mask …
H292 Cytotoxicity EC50 (pM) [2]: 51000 pM | EC50 [3]: 77.3 nM | EC50 [4]: 1140 nM

B5: PC-46 (bispecific antibody)
light: GGVDFCALYHWPICYQGGGGSGGLSGRSDAGSPLGLAGSGGSDIQLTQSPSSLSASVGDRVSITCKASQDVSIAVAWYQQKPGKAPKLLIYSASYRYTGVPDRFSGSGSGTDFTLTISSLQPEDFAVYYCQQHYITPLTFGAGTKVEIKRTVAAPSVFIFPPSDEQLKSGTASVVCLLNNFYPREAKVQWKVDNALQSGNSQESVTEQDSKDSTYSLSSTLTLSKADYEKHKVYACEVTHQGLSSPVTKSFNRGEC
heavy: not shown
notes: Masked polypeptide complex: anti-TROP2 F108A, anti-CD3 N30Q, I109V, G172A, V231A
CyTROP2 HEK293 EC50 (pM) [1]: 45600 pM | H292 Cytotoxicity EC50 (pM) [2]: > 100000 pM | EC50 [3]: 556 nM | EC50 [4]: 2550 nM

B6: PC-36 (bispecific antibody)
light: GGVDFCALYHWPICYQGGGGSGGLSGRSDAGSPLGLAGSGGSDIQLTQSPSSLSASVGDRVSITCKASQDVSIAVAWYQQKPGKAPKLLIYSASYRYTGVPDRFSGSGSGTDFTLTISSLQPEDFAVYYCQQHYITPLTFGAGTKVEIKRTVAAPSVFIFPPSDEQLKSGTASVVCLLNNFYPREAKVQWKVDNALQSGNSQESVTEQDSKDSTYSLSSTLTLSKADYEKHKVYACEVTHQGLSSPVTKSFNRGEC
heavy: not shown
notes: Masked polypeptide complex: anti-TROP2 F108A, anti-CD3 F104A
CyTROP2 HEK293 EC50 (pM) [1]: > 870000 pM | H292 Cytotoxicity EC50 (pM) [2]: > 100000 pM | EC50 [3]: 2920 nM | EC50 [4]: 1470 nM

B7: PC-50 (bispecific antibody)
light: GGVDFCALYHWPICYQGGGGSGGLSGRSDAGSPLGLAGSGGSDIQLTQSPSSLSASVGDRVSITCKASQDVSIAVAWYQQKPGKAPKLLIYSASYRYTGVPDRFSGSGSGTDFTLTISSLQPEDFAVYYCQQHYITPLTFGAGTKVEIKRTVAAPSVFIFPPSDEQLKSGTASVVCLLNNFYPREAKVQWKVDNALQSGNSQESVTEQDSKDSTYSLSSTLTLSKADYEKHKVYACEVTHQGLSSPVTKSFNRGEC
heavy: not shown
notes: Masked polypeptide complex: anti-TROP2 F108A, anti-CD3 H101A
CyTROP2 HEK293 EC50 (pM) [1]: > 100000 pM | H292 Cytotoxicity EC50 (pM) [2]: > 100000 pM | EC50 [3]: 454 nM | EC50 [4]: 1220 nM

B8: PC-45 (bispecific antibody)
light: GGVDFCALYHWPICYQGGGGSGGLSGRSDAGSPLGLAGSGGSDIQLTQSPSSLSASVGDRVSITCKASQDVSIAVAWYQQKPGKAPKLLIYSASYRYTGVPDRFSGSGSGTDFTLTISSLQPEDFAVYYCQQHYITPLTFGAGTKVEIKRTVAAPSVFIFPPSDEQLKSGTASVVCLLNNFYPREAKVQWKVDNALQSGNSQESVTEQDSKDSTYSLSSTLTLSKADYEKHKVYACEVTHQGLSSPVTKSFNRGEC
heavy: not shown
notes: as for B4
H292 Cytotoxicity EC50 (pM) [2]: > 100000 pM | EC50 [3]: 97 nM | EC50 [4]: 4010 nM

B9: PC-35 (bispecific antibody)
light: GGVDFCALYHWPICYQGGGGSGGLSGRSDAGSPLGLAGSGGSDIQLTQSPSSLSASVGDRVSITCKASQDVSIAVAWYQQKPGKAPKLLIYSASYRYTGVPDRFSGSGSGTDFTLTISSLQPEDFAVYYCQQHYITPLTFGAGTKVEIKRTVAAPSVFIFPPSDEQLKSGTASVVCLLNNFYPREAKVQWKVDNALQSGNSQESVTEQDSKDSTYSLSSTLTLSKADYEKHKVYACEVTHQGLSSPVTKSFNRGEC
heavy: not shown
notes: as for B1
CyTROP2 HEK293 EC50 (pM) [1]: > 100000 pM | H292 Cytotoxicity EC50 (pM) [2]: > 100000 pM | HCT116 Cytotoxicity EC50 (pM) [2]: > 100000 pM | EC50 [3]: 30 nM | EC50 [4]: 2080 nM

B10: PC-38 (bispecific antibody)
light: GGVDFCALYHWPICYQGGGGSGGLSGRSDAGSPLGLAGSGGSDIQLTQSPSSLSASVGDRVSITCKASQDVSIAVAWYQQKPGKAPKLLIYSASYRYTGVPDRFSGSGSGTDFTLTISSLQPEDFAVYYCQQHYITPLTFGAGTKVEIKRTVAAPSVFIFPPSDEQLKSGTASVVCLLNNFYPREAKVQWKVDNALQSGNSQESVTEQDSKDSTYSLSSTLTLSKADYEKHKVYACEVTHQGLSSPVTKSFNRGEC
heavy: not shown
notes: as for B3
H292 Cytotoxicity EC50 (pM) [2]: > 100000 pM | EC50 [3]: 77.6 nM | EC50 [4]: 3020 nM

B11: Peptide-8 (peptide)
peptide: VDFCGLYHWPICYQ
modifications: cysteine pairing not given here; also: biotinylated, site not given here
IC50 [5]: 300 nM | IC50 [6]: 610 nM | IC50 [7]: 20 nM | IC50 [8]: 890 nM | IC50 [9]: 620 nM | IC50 [10]: 1010 nM | IC50 [11]: 80 nM | IC50 [12]: 870 nM

From patent US20230357429A1 (JANUX THERAPEUTICS, published 2023)
